This is an account of results in patent publication US20210171621A1 (SUNSHINE GUOJIAN PHARMACEUTICAL SHANGHAI, published 2021).

The target of test [1] is T1, human IL-5-hFc (human, UniProt P05113 20-134).
T1 construct: not shown: Fc segment of human IgG1
Kind of test: blocking ELISA: plate coated with IL-5-hFc, antibody dilutions mixed with biotinylated IL-5RA-ECD-hFc (the blocked ligand), Streptavidin-HRP, OD450. The method, then: (§1) After incubation for a period of time, the plate was washed and Streptavidin-HRP was added finally for color development detection.
Background: In an ELISA, binding on a coated surface is turned into a signal by an enzyme label.

Test [2] addresses T1, human IL-5-hFc. Kind of test: competition ELISA: IL-5-hFc coated, biotinylated IL-5RA-ECD-hFc as competitor. The method, then:
as §1

The target of test [3] is T2, human IL-5 protein (purchased from Beijing Yiqiao Shenzhou) (human, UniProt P05113 20-134).
T2 construct: Bought protein
Kind of test: SPR Biacore T200, antibody captured on Protein A/G, IL-5 as analyte. The text has this: The specific experimental method was as follows: A CM5 sensor chip (GE healthcare) was activated with a Amine Coupling Kit (GE healthcare) and the Protein A/G fusion protein (Thermo Pierce) was immobilized on the chip with an lable amount of 2000 RU. FC3 (Flow cell 3) was a reference channel, and FC4 (Flow cell 4) was a sample channel.
In general terms: SPR reads the build-up and loss of mass on a sensor chip optically.

The target in test [4] is T2, human IL-5 protein (purchased from …). The test can be described thus: cell-based or functional assay.
For test [5], the target named is T3, human IL-5-His-tag antigen (human, UniProt P05113 20-134).
T3 construct: Made in HEK293
The test can be described thus: ELISA, His-tagged IL-5 captured by anti-His antibody; human.

The next test has as its target T4, mouse IL-5 with His-tag (mouse, UniProt P04401 21-133).
T4 construct: Expressed transiently in HEK293E and captured from the supernatant by a murine anti-His antibody; not shown: His-tag
T4 sequence (looked up): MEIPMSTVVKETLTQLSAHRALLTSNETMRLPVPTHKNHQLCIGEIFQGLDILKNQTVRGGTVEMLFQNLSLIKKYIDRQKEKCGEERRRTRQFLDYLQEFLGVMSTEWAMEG
Kind of test: ELISA, His-tagged IL-5 captured by anti-His antibody; mouse. The source says: (§2) IL-5 genes of rat, mouse, guinea pig and rabbit were synthesized and constructed into the pTT5 transient vector, respectively (All the sequences of the above genes are from http://www.uniprot.org, the mouse number is P04401, the rat number is Q08125, the guinea pig number is O08987, and the rabbit number is G1SL79), and then transiently expressed in HEK293E.

A further test concerns the target T5, rat IL-5 with His-tag (rat, UniProt Q08125 20-132).
T5 construct: Expressed transiently in HEK293E and captured from the supernatant by a murine anti-His antibody; not shown: His-tag
T5 sequence (looked up): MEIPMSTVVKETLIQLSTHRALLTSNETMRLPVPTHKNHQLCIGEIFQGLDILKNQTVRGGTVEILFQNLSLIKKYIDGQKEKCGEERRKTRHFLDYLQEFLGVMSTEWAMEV
Kind of test: ELISA, His-tagged IL-5 captured by anti-His antibody; rat.
Description: as §2

Test [6] deals with T6, guinea pig IL-5 with His-tag (guinea pig, UniProt O08987 20-135).
T6 construct: Expressed transiently in HEK293E and captured from the supernatant by a murine anti-His antibody; not shown: His-tag
T6 sequence (looked up): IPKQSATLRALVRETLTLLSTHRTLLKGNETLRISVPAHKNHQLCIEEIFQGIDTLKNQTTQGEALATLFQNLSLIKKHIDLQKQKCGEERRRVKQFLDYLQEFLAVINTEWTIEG
The test can be described thus: ELISA, His-tagged IL-5 captured by anti-His antibody; guinea pig.
Description: as §2

Test [7] deals with T7, IL-5 mutant 104L to Alanine, with His-tag (human, UniProt P05113 20-134).
T7 construct: Expressed transiently in HEK293E; used from the supernatant, captured by a murine anti-His antibody; not shown: His-tag
The test can be described thus: capture ELISA: His-tagged IL-5 from HEK293E supernatant captured with murine anti-His antibody, detected with Goat-anti-Human-Fc-Specific-HRP; mean of four wells.

In test [8] the target is T8, IL-5 mutant 96F to Alanine, with His-tag (human, UniProt P05113 20-134).
T8 construct: Expressed transiently in HEK293E; used from the supernatant, captured by a murine anti-His antibody; not shown: His-tag
Described as above.

In test [9] the target is T9, IL-5 mutant 90R to Alanine, with His-tag (human, UniProt P05113 20-134).
T9 construct: Expressed transiently in HEK293E; used from the supernatant, captured by a murine anti-His antibody; not shown: His-tag
Described as above.

Test [10] concerns the target T10, IL-5 mutant 91R to Alanine, with His-tag (human, UniProt P05113 20-134).
T10 construct: Expressed transiently in HEK293E; used from the supernatant, captured by a murine anti-His antibody; not shown: His-tag
The description is as above.

Test [11] addresses T11, IL-5 mutant 86C to Alanine, with His-tag (human, UniProt P05113 20-134).
T11 construct: Expressed transiently in HEK293E; used from the supernatant, captured by a murine anti-His antibody; not shown: His-tag
The test is described as above.

The target of a further test is T12, rabbit IL-5 with His-tag (rabbit, UniProt G1SL79 20-134).
T12 construct: Expressed transiently in HEK293E and captured from the supernatant by a murine anti-His antibody
T12 sequence: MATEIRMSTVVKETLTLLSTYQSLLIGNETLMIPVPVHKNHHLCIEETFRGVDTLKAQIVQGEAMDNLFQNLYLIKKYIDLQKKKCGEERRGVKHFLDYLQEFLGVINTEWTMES
The test can be described thus: ELISA, His-tagged IL-5 captured by anti-His antibody.
Description: as §2

B1: control antibody 4-4-Humanized (antibody, human IgG1, V domains shown)
VH: QVQLVQSGAEVKKPGASVKVSCKASGYTFTDYYINWLRQAPGQGLEWIGWIYPGSGNTKYSEKFKDRATLTVDTSTSTVYMELSSLRSEDTAVYVCVRDGYYWYFDVWGQGTLVTVSS
VL: DIVMTQSPDSLAVSLGERATINCKSSQSLLNNYNQKNYLAWYQQKPGQPPKLLVYFTSTRESGVPDRFSGSGSGTDFTLTISSLQAEDVAVYFCQQHYSPPFTFGQGTKVEIK
Consider B1, for which the “IC50 (read off the curve)” value with human IL-5-hFc [1] was approximately 4 µg/mL.

B2: chimeric antibody No. 4-6 (4-6-Chimeric) (antibody, human IgG1, V domains shown)
VH: QVQLQQSGAELVRPGASVKISCKAFGYTFTNHHINWVQQRPGQGLDWIGYINPYNDYSRYNQKFKGKATLTVDKSSSTAYMELSGLTSEDSAVYYCARDYGNFWYFDVWGAGTTVTVSS
VL: DIKMTQSPSSMYASLGERVTITCKASQDINSYLSWIQQKPGKSPKTLIHRADRLIDGVPSRFSGSGSGQDFSLTISSLEYEDMGIYYCLQYDDFPYTFGGGTKLEIK
Consider B2, for which, in the test with human IL-5-hFc [2], the IC50 was determined as 0.98 µg/mL. In addition, in [3], the Kd is 0.013 nM, the koff amounted to 0.000196 s⁻¹ and the kon amounted to 1.51e+07 M⁻¹ s⁻¹. The “IC50 for inhibiting IL-5-induced TF-1 cell proliferation (4-6-Chimeric)” value in test [4] was determined as 0.0289 µg/mL.

B3: hu39D10 (antibody, V domains shown)
VH: EVQLVESGGGLVQPGGSLRLSCAVSGLSLTSNSVNWIRQAPGKGLEWVGLIWSNGDTDYNSAIKSRFTISRDTSKSTVYLQMNSLRAEDTAVYYCAREYYGYFDYWGQGTLVTVSS
VL: DIQMTQSPSSLSASVGDRVTITCLASEGISSYLAWYQQKPGKAPKLLIYGANSLQTGVPSRFSGSGSATDYTLTISSLQPEDFATYYCQQSYKFPNTFGQGTKVEVKR
Turning to B3, the EC50 was found to be 0.078 µg/mL in [5], 0.0618 µg/mL with mouse IL-5 with His-tag, 0.132 µg/mL with rat IL-5 with His-tag and 0.0531 µg/mL in test [6]. The same molecule came in with a Kd in test [3] of 0.0136 nM. The molecule also displayed a koff in [3] of 0.000156 s⁻¹. The kon in test [3] stood at 1.15e+07 M⁻¹ s⁻¹. Also, the “IC50 for inhibiting IL-5-induced TF-1 cell proliferation (hu39D10)” value in test [4] was 0.0476 µg/mL. In addition, the OD450 in test [7] is 0.11; in [8] it was 0.456; in test [9] it was 0.499; in test [10], 0.171; in [11], 0.13.

B4: humanized antibody No. 4-6 (4-6-Humanized) (antibody, human IgG1, kappa, V domains shown)
VH: QVQLVQSGAEVKKPGASVKVSCKASGYTFTNHHINWVRQAPGQGLEWIGYINPYNDYSRYNQKFKGRATLTVDKSTSTAYMELSSLRSEDTAVYYCARDYGNFWYFDVWGQGTLVTVSS
VL: DIQMTQSPSSLSASVGDRVTITCKASQDINSYLSWIQQKPGKAPKTLIHRADRLIDGVPSRFSGSGSGQDFTLTISSLQPEDFATYYCLQYDDFPYTFGQGTKVEIKR
notes: Human IgG1; Made in HEK293; also called 4-6-Humanized (293); 4-6-Humanized (CHO)
For B4, the values for the EC50 (in the test with mouse IL-5 with His-tag; in the test with rat IL-5 with His-tag; in test [6]) were 0.0521 µg/mL, 2.13 µg/mL and 0.0558 µg/mL, respectively. The binding result with rabbit IL-5 with His-tag is “no binding”.

What is called IC50 is the concentration that inhibits the measured activity by half. Higher therefore signals a need for much substance. Broadly, the Kd is the constant that tells how readily two partners part at equilibrium. What is called koff is the first-order rate constant of dissociation. Read a high koff as fast dissociation. A word on the kon: it is a measure of how fast the partners come together. A high value points to faster complex formation. Usually EC50 stands for the concentration needed to bring the measured effect to its halfway point. A higher EC50 goes with a need for much substance.
